Reference: the Human Domainome abundance scans (Beltran et al. 2025)
± gives the uncertainty stated by the source.

B1: KAT8 regulatory NSL complex subunit 2, residues 28 to 91; numbered along this chain, Q9H9L4 (parent)
chain: CAFTHRPCSHPRLEGQEFCIKHILEDKNAPFKQCSYISTKNGKRCPNAAPKPEKKDGVSFCAEH

Variants of: B1
Assay: abundance fitness (aPCA) (normalised: wild type 0, dead -1); higher = more abundant; growth selection in yeast, the domain comes from the species named
Conditions: Homo sapiens

**Q.** Which abundance fitness does the source give for CAFTHRECSHPRLEGQEFCIKHILEDKNAPFKQCSYISTKNGKRCPNAAPKPEKKDGVSFCAEH [P7E] here?
**A.** -0.063 ± 0.078

**Q.** For CAFTHRYCSHPRLEGQEFCIKHILEDKNAPFKQCSYISTKNGKRCPNAAPKPEKKDGVSFCAEH [P7Y], which abundance fitness is on record?
**A.** -0.149 ± 0.1

**Q.** For CAFTHRFCSHPRLEGQEFCIKHILEDKNAPFKQCSYISTKNGKRCPNAAPKPEKKDGVSFCAEH [P7F], which abundance fitness is on record?
**A.** -0.121 ± 0.12

**Q.** For CAFTHRICSHPRLEGQEFCIKHILEDKNAPFKQCSYISTKNGKRCPNAAPKPEKKDGVSFCAEH [P7I], which abundance fitness is on record?
**A.** -0.096 ± 0.081

**Q.** For CAFTHRGCSHPRLEGQEFCIKHILEDKNAPFKQCSYISTKNGKRCPNAAPKPEKKDGVSFCAEH [P7G], which abundance fitness is on record?
**A.** -0.063 ± 0.091

**Q.** For CAFTHRNCSHPRLEGQEFCIKHILEDKNAPFKQCSYISTKNGKRCPNAAPKPEKKDGVSFCAEH [P7N], which abundance fitness is on record?
**A.** -0.204 ± 0.21

**Q.** For CAFTHRLCSHPRLEGQEFCIKHILEDKNAPFKQCSYISTKNGKRCPNAAPKPEKKDGVSFCAEH [P7L], which abundance fitness is on record?
**A.** -0.101 ± 0.046

**Q.** With CAFTHRSCSHPRLEGQEFCIKHILEDKNAPFKQCSYISTKNGKRCPNAAPKPEKKDGVSFCAEH [P7S] as the variant, how does the abundance fitness read?
**A.** -0.14 ± 0.053

**Q.** With CAFTHRQCSHPRLEGQEFCIKHILEDKNAPFKQCSYISTKNGKRCPNAAPKPEKKDGVSFCAEH [P7Q] as the variant, how does the abundance fitness read?
**A.** -0.072 ± 0.062

**Q.** With CAFTHRWCSHPRLEGQEFCIKHILEDKNAPFKQCSYISTKNGKRCPNAAPKPEKKDGVSFCAEH [P7W] as the variant, how does the abundance fitness read?
**A.** -0.148 ± 0.06

**Q.** Which abundance fitness does the source give for CAFTHRMCSHPRLEGQEFCIKHILEDKNAPFKQCSYISTKNGKRCPNAAPKPEKKDGVSFCAEH [P7M] here?
**A.** -0.05 ± 0.067

**Q.** For CAFTHRKCSHPRLEGQEFCIKHILEDKNAPFKQCSYISTKNGKRCPNAAPKPEKKDGVSFCAEH [P7K], which abundance fitness is on record?
**A.** -0.123 ± 0.073

**Q.** Which abundance fitness does the source give for CAFTHRDCSHPRLEGQEFCIKHILEDKNAPFKQCSYISTKNGKRCPNAAPKPEKKDGVSFCAEH [P7D] here?
**A.** 0.003 ± 0.1

**Q.** With CAFTHRRCSHPRLEGQEFCIKHILEDKNAPFKQCSYISTKNGKRCPNAAPKPEKKDGVSFCAEH [P7R] as the variant, how does the abundance fitness read?
**A.** -0.003 ± 0.058

**Q.** For CAFTHRCCSHPRLEGQEFCIKHILEDKNAPFKQCSYISTKNGKRCPNAAPKPEKKDGVSFCAEH [P7C], which abundance fitness is on record?
**A.** -0.201 ± 0.091

**Q.** With CAFTHRVCSHPRLEGQEFCIKHILEDKNAPFKQCSYISTKNGKRCPNAAPKPEKKDGVSFCAEH [P7V] as the variant, how does the abundance fitness read?
**A.** -0.1 ± 0.052

**Q.** Which abundance fitness does the source give for CAFTHRACSHPRLEGQEFCIKHILEDKNAPFKQCSYISTKNGKRCPNAAPKPEKKDGVSFCAEH [P7A] here?
**A.** -0.061 ± 0.076

**Q.** Which abundance fitness does the source give for CAFTHRHCSHPRLEGQEFCIKHILEDKNAPFKQCSYISTKNGKRCPNAAPKPEKKDGVSFCAEH [P7H] here?
**A.** -0.133 ± 0.14

**Q.** With CAFTHRPGSHPRLEGQEFCIKHILEDKNAPFKQCSYISTKNGKRCPNAAPKPEKKDGVSFCAEH [C8G] as the variant, how does the abundance fitness read?
**A.** -0.742 ± 0.056

**Q.** With CAFTHRPNSHPRLEGQEFCIKHILEDKNAPFKQCSYISTKNGKRCPNAAPKPEKKDGVSFCAEH [C8N] as the variant, how does the abundance fitness read?
**A.** -0.641 ± 0.1

**Q.** For CAFTHRPFSHPRLEGQEFCIKHILEDKNAPFKQCSYISTKNGKRCPNAAPKPEKKDGVSFCAEH [C8F], which abundance fitness is on record?
**A.** -1.45 ± 0.15

**Q.** With CAFTHRPDSHPRLEGQEFCIKHILEDKNAPFKQCSYISTKNGKRCPNAAPKPEKKDGVSFCAEH [C8D] as the variant, how does the abundance fitness read?
**A.** -0.646 ± 0.085

**Q.** For CAFTHRPVSHPRLEGQEFCIKHILEDKNAPFKQCSYISTKNGKRCPNAAPKPEKKDGVSFCAEH [C8V], which abundance fitness is on record?
**A.** -0.949 ± 0.058

**Q.** With CAFTHRPLSHPRLEGQEFCIKHILEDKNAPFKQCSYISTKNGKRCPNAAPKPEKKDGVSFCAEH [C8L] as the variant, how does the abundance fitness read?
**A.** -1.31 ± 0.07

**Q.** Which abundance fitness does the source give for CAFTHRPWSHPRLEGQEFCIKHILEDKNAPFKQCSYISTKNGKRCPNAAPKPEKKDGVSFCAEH [C8W] here?
**A.** -1.24 ± 0.093

**Q.** For CAFTHRPISHPRLEGQEFCIKHILEDKNAPFKQCSYISTKNGKRCPNAAPKPEKKDGVSFCAEH [C8I], which abundance fitness is on record?
**A.** -0.847 ± 0.09

**Q.** Which abundance fitness does the source give for CAFTHRPRSHPRLEGQEFCIKHILEDKNAPFKQCSYISTKNGKRCPNAAPKPEKKDGVSFCAEH [C8R] here?
**A.** -1.02 ± 0.06

**Q.** With CAFTHRPKSHPRLEGQEFCIKHILEDKNAPFKQCSYISTKNGKRCPNAAPKPEKKDGVSFCAEH [C8K] as the variant, how does the abundance fitness read?
**A.** -0.664 ± 0.079

**Q.** For CAFTHRPQSHPRLEGQEFCIKHILEDKNAPFKQCSYISTKNGKRCPNAAPKPEKKDGVSFCAEH [C8Q], which abundance fitness is on record?
**A.** -0.832 ± 0.093

**Q.** With CAFTHRPASHPRLEGQEFCIKHILEDKNAPFKQCSYISTKNGKRCPNAAPKPEKKDGVSFCAEH [C8A] as the variant, how does the abundance fitness read?
**A.** -0.883 ± 0.076

**Q.** With CAFTHRPPSHPRLEGQEFCIKHILEDKNAPFKQCSYISTKNGKRCPNAAPKPEKKDGVSFCAEH [C8P] as the variant, how does the abundance fitness read?
**A.** -0.874 ± 0.086

**Q.** Which abundance fitness does the source give for CAFTHRPHSHPRLEGQEFCIKHILEDKNAPFKQCSYISTKNGKRCPNAAPKPEKKDGVSFCAEH [C8H] here?
**A.** -0.854 ± 0.085

**Q.** For CAFTHRPYSHPRLEGQEFCIKHILEDKNAPFKQCSYISTKNGKRCPNAAPKPEKKDGVSFCAEH [C8Y], which abundance fitness is on record?
**A.** -1.07 ± 0.073

**Q.** Which abundance fitness does the source give for CAFTHRPSSHPRLEGQEFCIKHILEDKNAPFKQCSYISTKNGKRCPNAAPKPEKKDGVSFCAEH [C8S] here?
**A.** -0.891 ± 0.059

**Q.** Which abundance fitness does the source give for CAFTHRPMSHPRLEGQEFCIKHILEDKNAPFKQCSYISTKNGKRCPNAAPKPEKKDGVSFCAEH [C8M] here?
**A.** -0.937 ± 0.084

**Q.** With CAFTHRPESHPRLEGQEFCIKHILEDKNAPFKQCSYISTKNGKRCPNAAPKPEKKDGVSFCAEH [C8E] as the variant, how does the abundance fitness read?
**A.** -0.711 ± 0.054

**Q.** With CAFWHRPCSHPRLEGQEFCIKHILEDKNAPFKQCSYISTKNGKRCPNAAPKPEKKDGVSFCAEH [T4W] as the variant, how does the abundance fitness read?
**A.** -0.388 ± 0.1

**Q.** Which abundance fitness does the source give for CAFVHRPCSHPRLEGQEFCIKHILEDKNAPFKQCSYISTKNGKRCPNAAPKPEKKDGVSFCAEH [T4V] here?
**A.** -0.468 ± 0.049

**Q.** Which abundance fitness does the source give for CAFIHRPCSHPRLEGQEFCIKHILEDKNAPFKQCSYISTKNGKRCPNAAPKPEKKDGVSFCAEH [T4I] here?
**A.** -0.114 ± 0.1

**Q.** With CAFRHRPCSHPRLEGQEFCIKHILEDKNAPFKQCSYISTKNGKRCPNAAPKPEKKDGVSFCAEH [T4R] as the variant, how does the abundance fitness read?
**A.** -0.399 ± 0.085

**Q.** For CAFPHRPCSHPRLEGQEFCIKHILEDKNAPFKQCSYISTKNGKRCPNAAPKPEKKDGVSFCAEH [T4P], which abundance fitness is on record?
**A.** -0.512 ± 0.083

**Q.** For CAFSHRPCSHPRLEGQEFCIKHILEDKNAPFKQCSYISTKNGKRCPNAAPKPEKKDGVSFCAEH [T4S], which abundance fitness is on record?
**A.** -0.193 ± 0.081
